In publication PMC2866327, “Designed Inhibitors of Insulin-Degrading Enzyme Regulate the Catabolism and Activity of Insulin” (PLoS ONE, 2010):
Square brackets hold non-standard residues; d marks the D form. Ends that are not written are not given here. 2Nal = N[C@@H](Cc1ccc2ccccc2c1)C(=O)O; d2Nal = N[C@H](Cc1ccc2ccccc2c1)C(=O)O

Molecular target: T1, insulin-degrading enzyme (recombinant human IDE) (human, UniProt P14735 1-1019)
T1 construct: insulin-degrading enzyme, human, recombinant; source: recombinant, purified from bacteria [33]
Assay: enzyme inhibition assay (Ki); recombinant human IDE (nominal 1 nM); dose-response of the hydrolysis of IDE substrates (FRET1, SP1, FAβB, 125I-insulin, or insulin by HTRF); the substrate used for the Ki values in the text is not stated
Settings: both partners purified

With [2Nal]RWE (also: N-terminal hydroxamic acid moiety, structure not given here) [Ii1 (IDE inhibitor 1), conventional peptide hydroxamate incorporating 2-Nap at the P1' position] as the binder, how does the Ki read?
Its Ki is roughly 1.7 nM.

B1: retro-inverso peptide hydroxamate Xaa-Arg-Tyr with 2-naphthylalanine (2-Nap) at P1' (peptide)
chain: [d2Nal]-[dR]-[dY]
modifications: also: retro-inverso backbone, hydroxamic acid next to P1', P1' said to be a β-amino acid
B1 was tested. Which “fold gain in potency (relative Ki) against Phe at P1'” value did it give?
Its value is roughly 100 fold.
